Assay results: US20240400715A1 (VIBRANT PHARMA, published 2024)
Changes are numbered by the printed parent chain.

T1: human CEA (CEACAM5) on tumor cells (human, UniProt P06731 35-702)
T1 sequence (looked up): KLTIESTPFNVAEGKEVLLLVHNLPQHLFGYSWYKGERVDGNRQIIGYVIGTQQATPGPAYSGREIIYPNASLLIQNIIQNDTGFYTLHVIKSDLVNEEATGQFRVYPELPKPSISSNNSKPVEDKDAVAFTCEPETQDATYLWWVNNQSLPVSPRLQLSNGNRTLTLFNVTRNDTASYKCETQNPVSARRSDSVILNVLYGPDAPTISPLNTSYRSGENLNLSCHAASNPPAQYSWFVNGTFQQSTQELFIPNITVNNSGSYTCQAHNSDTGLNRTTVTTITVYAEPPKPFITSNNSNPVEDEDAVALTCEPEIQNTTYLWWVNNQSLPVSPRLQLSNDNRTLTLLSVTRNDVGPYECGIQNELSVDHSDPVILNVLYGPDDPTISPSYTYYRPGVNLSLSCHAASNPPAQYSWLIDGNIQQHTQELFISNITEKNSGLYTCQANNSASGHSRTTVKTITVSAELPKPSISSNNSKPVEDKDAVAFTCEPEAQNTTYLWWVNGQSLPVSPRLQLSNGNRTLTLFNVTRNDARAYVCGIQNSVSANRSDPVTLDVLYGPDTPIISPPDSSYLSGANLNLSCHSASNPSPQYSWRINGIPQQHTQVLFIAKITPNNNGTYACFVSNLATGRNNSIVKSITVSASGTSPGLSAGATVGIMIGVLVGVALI

B1: bispecific antibody 101 (Fab-Knob+CEA-Hole) (bispecific antibody, human IgG4 S228P, kappa, F234A L235A)
heavy: EVKLLESGGGLVQPKGSLKLSCAASGFTFNTYAMNWVRQAPGKGLEWVARIRSKYNNYATYYADSVKDRFTISRDDSQSILYLQMNNLKTEDTAMYYCVRHGNFGNSYVSWFAYWGQGTLVTVSSASTKGPSVFPLAPCSRSTSESTAALGCLVKDYFPEPVTVSWNSGALTSGVHTFPAVLQSSGLYSLSSVVTVPSSSLGTKTYTCNVDHKPSNTKVDKRVESKYGPPCPPCPAPEAAGGPSVFLFPPKPKDTLMISRTPEVTCVVVDVSQEDPEVQFNWYVDGVEVHNAKTKPREEQFNSTYRVVSVLTVLHQDWLNGKEYKCKVSNKGLPSSIEKTISKAKGQPREPQVYTLPPCQEEMTKNQVSLWCLVKGFYPSDIAVEWESNGQPENNYKTTPPVLDSDGSFFLYSRLTVDKSRWQEGNVFSCSVMHEALHNHYTQKSLSLSL
chain: EVQLVESGGGFVQAGESLTLSCTSSTLTFTPYRMAWYRQAPGKQRDLVADISSGDGRTTNYADFAKGRFTISRDNIKNTVFLRMTNLKPEDTAVYYCNTFVSFVGIARSWGQGTQVTVSSESKYGPPCPPCPAPEAAGGPSVFLFPPKPKDTLMISRTPEVTCVVVDVSQEDPEVQFNWYVDGVEVHNAKTKPREEQFNSTYRVVSVLTVLHQDWLNGKEYKCKVSNKGLPSSIEKTISKAKGQPREPQVCTLPPSQEEMTKNQVSLSCAVKGFYPSDIAVEWESNGQPENNYKTTPPVLDSDGSFFLVSRLTVDKSRWQEGNVFSCSVMHEALHNRFTQKSLSLSL
light: QAVVTQESALTTSPGETVTLTCRSSTGAVTTSNYANWVQEKPDHLFTGLIGGTNKRAPGVPARFSGSLIGDKAALTITGAQTEDEAIYFCALWYSNLWVFGGGTKVEIKRTVAAPSVFIFPPSDEQLKSGTASVVCLLNNFYPREAKVQWKVDNALQSGNSQESVTEQDSKDSTYSLSSTLTLSKADYEKHKVYACEVTHQGLSSPVTKSFNRGEC
notes: Human IgG4 Fc with knob-into-hole, kappa light chain
B2: EGFR-CD3 bispecific antibody 404 (bispecific antibody, human IgG4 S228P, kappa, F234A L235A)
chain: QVQLQESGGGSVQAGGSLKLSCAASGRGFSRYAMGWFRQAPGQDREFVATISWTNSTDYADSVKGRFAISRDNAKNTAYLQMNSLKPEDTAVYYCAADKWASSTRSIDYDYWGQGIQVTVSSESKYGPPCPPCPAPEAAGGPSVFLFPPKPKDTLMISRTPEVTCVVVDVSQEDPEVQFNWYVDGVEVHNAKTKPREEQFNSTYRVVSVLTVLHQDWLNGKEYKCKVSNKGLPSSIEKTISKAKGQPREPQVYTLPPCQEEMTKNQVSLWCLVKGFYPSDIAVEWESNGQPENNYKTTPPVLDSDGSFFLYSRLTVDKSRWQEGNVFSCSVMHEALHNHYTQKSLSLSL
heavy: B1 heavy with Y354C, C359S, W371S, L373A, Y412V, H440R, Y441F
light: B1 light
notes: VHH-knob chain assembled from VHH and knob-Fc with hinge
B3: EGFR-CD3 bispecific antibody 401 (bispecific antibody, human IgG4 S228P, kappa, F234A L235A)
heavy: B1 heavy
chain: B2 chain with Y253C, C258S, W270S, L272A, Y311V, H339R, Y340F
light: B1 light
notes: VHH-hole chain assembled from VHH and hole-Fc with hinge
B4: EGFR-CD3 bispecific antibody 404 (bispecific antibody, human IgG4 S228P, kappa, F234A L235A)
chain: B2 chain
heavy: B1 heavy with Y354C, C359S, W371S, L373A, Y412V, H440R, Y441F
light: B1 light
B5: EGFR-CD3 bispecific antibody 401 (bispecific antibody, human IgG4 S228P, kappa, F234A L235A)
heavy: B1 heavy
chain: B2 chain with Y253C, C258S, W270S, L272A, Y311V, H339R, Y340F
light: B1 light
B6: HER2-CD3 bispecific antibody 504 (bispecific antibody, human IgG4 S228P, kappa, F234A L235A)
chain: QVQLVQSGGGLVQAGGSLRLSCAASGRTFSSYAMAWFRQAPGKEREFVAAISWSGANIYVADSVKGRFTISRDNAKDTVYLQMNSLKPEDTAVYYCAVKLGFAPVEERQYDYWGQGTQVTVSSESKYGPPCPPCPAPEAAGGPSVFLFPPKPKDTLMISRTPEVTCVVVDVSQEDPEVQFNWYVDGVEVHNAKTKPREEQFNSTYRVVSVLTVLHQDWLNGKEYKCKVSNKGLPSSIEKTISKAKGQPREPQVYTLPPCQEEMTKNQVSLWCLVKGFYPSDIAVEWESNGQPENNYKTTPPVLDSDGSFFLYSRLTVDKSRWQEGNVFSCSVMHEALHNHYTQKSLSLSL
heavy: B1 heavy with Y354C, C359S, W371S, L373A, Y412V, H440R, Y441F
light: B1 light

Tests used:
[1] = target: T1, human CEA (CEACAM5) on tumor cells; assay: cell-based or functional assay
[2] = target: the molecule itself; assay: BLI self-interaction: antibody captured on AHQ anti-human Fc sensor, free sites blocked with human IgG, same antibody in solution
Method: The bispecific antibodies were diluted to 1 μM, and the proteins were coupled to the surface of the AHQ sensor chip in PBS, and the signal value was ˜0.8 nm. […] The experimental parameters are as follows: Baseline1: 60s, Loading: 180s, Loading response: 0.8 nm, Baseline2: 180s, Association: 240s, High sensitivity kinetics: 2 Hz.

Insulin (abs42019847) = target: T2, Insulin (abs42019847); assay: ELISA, insulin coated on the plate, 100 nM antibody, anti-human IgG-HRP
T2 construct: Coated on the plate in the polyspecificity ELISA
Method: (§1) (1) Antigen coating: cardiolipin (Sigma, cat. C0563), keyhole limpet haemocyanin (KLH, Sigma, H8283), LPS (Sigma, L6529), ssDNA (Sigma, D8899), dsDNA (Sigma, D4522) and Insulin (abs42019847) were plated at 50 μg/mL, 5 μg/mL, 10 μg/mL, 1 μg/mL, 1 μg/mL, g/mL, and 50 μL per well, and incubated at 4° C. overnight;
(§2) (4) 50 μl anti-human IgG-HRP conjugate (Sigma, AP113P, 1:8000 dilution) was added to each well; the plate was incubated for 1 h at room temperature and washed 6 times with 0.05% PBST;

[3] = target: T1, human CEA (CEACAM5) on tumor cells; assay: cell-based or functional assay; remark: listed apart in the source
[4] = target: T3, keyhole limpet haemocyanin (KLH, Sigma, H8283) (keyhole limpet, UniProt Q10583 17-3414; Q10584 20-3421, limits assumed); assay: ELISA, KLH coated at 5 ug/mL, 100 nM antibody, anti-human IgG-HRP
T3 construct: Bought preparation coated on the plate in the polyspecificity ELISA
Method: as §1, §2

[5] = target: T4, recombinant tumor antigen human EGFR (ACRO systems, EGR-H5222) (human, UniProt P00533 25-645); assay: BLI, antibody captured on AHC sensor, 30 C
T4 construct: bought recombinant protein
From the text: (§3) After the chip captures the bispecific antibodies, it was allowed to bind and dissociate with different concentrations of analytes to obtain the KD value of the interaction. The experimental parameters are as follows: Baseline1: 60s, Loading: 240s, Baseline2: 180s, Association: 240s, Dissociation: 600s, Loading Response: 1.9-2.1 (nm), High sensitivity kinetics: 2 Hz. Kinetic constants were derived based on 1:1 Langmuir binding to obtain equilibrium dissociation constants (KD).

[6] = target: T5, human CD3ε/δ (ACRO systems, CDD-H52W1) (human, UniProt P07766 23-126; P04234 22-105); assay: BLI, antibody captured on AHC sensor, 30 C
T5 construct: bought recombinant heterodimer; also called human CD3 epsilon/delta; Human CD3ε/CD3δ

[7] = target: T6, human EGFR on tumor cells (human, UniProt P00533 25-1210); assay: cell-based or functional assay
[8] = target: T6, human EGFR on tumor cells; assay: cell-based or functional assay; remark: listed apart in the source
[9] = target: T7, human HER2 on tumor cells (human, UniProt P04626 23-1255); assay: cell-based or functional assay
[10] = target: T8, recombinant tumor antigen human HER2 (ERBB2, ACRO systems, HE2-H5212) (human, UniProt P04626 23-652); assay: BLI (Octet RED96e), antibody captured on AHC anti-human Fc sensor, HER2 as analyte, 30 C, 1:1 fit
T8 construct: Bought recombinant protein
From the text: as §3

[11] = target: T7, human HER2 on tumor cells; assay: cell-based or functional assay; remark: listed apart in the source

| Binder | BLI-Response (self-interaction signal) [2] | Absorbance value (450 nm, polyspecificity ELISA) (Insulin (abs42019847)) | Absorbance value (450 nm, polyspecificity ELISA) [4] | Kd [5] | koff [5] | kon [5] | Kd [6] | koff [6] | kon [6] | EC50 of tumor cell killing, MDA-MB-468 cells with human PBMC (E:T 10:1, 3 days, CCK8) [7] | EC50 of tumor cell killing, NCI-H1573 cells with human PBMC (E:T 10:1, 3 days, CCK8) [7] | EC50 of tumor cell killing, NCI-H1650 cells with human PBMC (E:T 10:1, 3 days, CCK8) [7] | EC50 of tumor cell killing, NCI-H2228 cells with human PBMC (E:T 10:1, 3 days, CCK8) [7] | EC50 of tumor cell killing, SK-OV-3 cells with human PBMC (E:T 10:1, 3 days, CCK8) [7] | EC50 of tumor cell killing, MCF-7 cells with human PBMC (E:T 10:1, 3 days, CCK8) [8] | EC50 of tumor cell killing, N87 cells with human PBMC (E:T 10:1, 3 days, CCK8) [8] | EC50 of tumor cell killing, NCI-H157 cells with human PBMC (E:T 10:1, 3 days, CCK8) [8] | EC50 of tumor cell killing, NCI-H441 cells with human PBMC (E:T 10:1, 3 days, CCK8) [8] | other results |
| --- | --- | --- | --- | --- | --- | --- | --- | --- | --- | --- | --- | --- | --- | --- | --- | --- | --- | --- | --- |
| B1 | 0.21 nm | 2.02 | 1.05 |  |  |  |  |  |  |  |  |  |  |  |  |  |  |  | EC50 of tumor cell killing, MDA-MB-468 cells with human PBMC (E:T 10:1, 3 days, CCK8) [1]: 1160 pM; EC50 of tumor cell killing, NCI-H1573 cells with human PBMC (E:T 10:1, 3 days, CCK8) [1]: 2.87 pM; EC50 of tumor cell killing, SK-OV-3 cells with human PBMC (E:T 10:1, 3 days, CCK8) [1]: 1000 pM; EC50 of tumor cell killing, MCF-7 cells with human PBMC (E:T 10:1, 3 days, CCK8) [3]: 8010 pM; EC50 of tumor cell killing, MDA-MB-453 cells with human PBMC (E:T 10:1, 3 days, CCK8) [3]: 8350 pM; EC50 of tumor cell killing, N87 cells with human PBMC (E:T 10:1, 3 days, CCK8) [3]: 200 pM |
| B2 |  |  |  | 2200 pM | 0.00238 s⁻¹ | 1.08e+06 M⁻¹ s⁻¹ | 2650 pM | 0.000469 s⁻¹ | 177000 M⁻¹ s⁻¹ |  |  |  |  |  |  |  |  |  |  |
| B3 |  |  |  | 2070 pM | 0.00201 s⁻¹ | 969000 M⁻¹ s⁻¹ | 2710 pM | 0.000491 s⁻¹ | 181000 M⁻¹ s⁻¹ |  |  |  |  |  |  |  |  |  |  |
| B4 | 0.062 nm | 1.08 | 1.06 |  |  |  |  |  |  | 0.0158 pM | 6.94 pM | 67.7 pM | 73.4 pM | 9.95 pM | 84 pM | 1470 pM | 17700 pM | 9.08 pM |  |
| B5 |  | 1.01 | 0.96 |  |  |  |  |  |  | 0.0208 pM | 5.83 pM | 98.6 pM | 114 pM | 11.3 pM | 206 pM | 1310 pM | 10000 pM | 5.38 pM |  |
| B6 |  | 1.51 | 1.92 |  |  |  |  |  |  |  |  |  |  |  |  |  |  |  | EC50 of tumor cell killing, MDA-MB-468 cells with human PBMC (E:T 10:1, 3 days, CCK8) [9]: 332 pM; EC50 of tumor cell killing, NCI-H1573 cells with human PBMC (E:T 10:1, 3 days, CCK8) [9]: 37.8 pM; EC50 of tumor cell killing, NCI-H1650 cells with human PBMC (E:T 10:1, 3 days, CCK8) [9]: 1620 pM; EC50 of tumor cell killing, NCI-H2228 cells with human PBMC (E:T 10:1, 3 days, CCK8) [9]: 2430 pM; EC50 of tumor cell killing, SK-OV-3 cells with human PBMC (E:T 10:1, 3 days, CCK8) [9]: 10 pM; Kd [10]: 18000 pM; koff [10]: 0.00413 s⁻¹; kon [10]: 230000 M⁻¹ s⁻¹; EC50 of tumor cell killing, MCF-7 cells with human PBMC (E:T 10:1, 3 days, CCK8) [11]: 1220 pM; EC50 of tumor cell killing, MDA-MB-453 cells with human PBMC (E:T 10:1, 3 days, CCK8) [11]: 4060 pM; EC50 of tumor cell killing, N87 cells with human PBMC (E:T 10:1, 3 days, CCK8) [11]: 1290 pM; EC50 of tumor cell killing, NCI-H157 cells with human PBMC (E:T 10:1, 3 days, CCK8) [11]: 10800 pM; EC50 of tumor cell killing, NCI-H441 cells with human PBMC (E:T 10:1, 3 days, CCK8) [11]: 119 pM |
